Laboratory results from publication PMC5028113.

Target: interferon-gamma (IFN-γ) (UniProt P01579 24-161)
Assay: competition

Chain of interferon-gamma (IFN-γ) (P01579 24-161): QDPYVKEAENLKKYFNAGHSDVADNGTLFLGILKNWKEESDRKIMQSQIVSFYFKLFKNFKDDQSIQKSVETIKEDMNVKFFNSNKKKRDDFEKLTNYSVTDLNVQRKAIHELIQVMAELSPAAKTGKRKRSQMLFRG

B1: IFN-γ aptamer hybridized with biotin-DNA and thiol-DNA (invertase conjugate) (mixed)
DNA 1: TGGGGTTGGTTGTGTTGGGTGTTGTGTAAAAAAAAAAAAAACTACTCATCTGTGA
DNA 2: AAAAAAAAAAAATCACAGATGAGTAGT
?: AAAAAAAAAAACAACCAACCCCA
modifications: 5' biotin on strand 2; 5' thiol on strand 3
binding result: binds
